Data as given in patent publication US20240288440A1 (MACFARLANE BURNET INSTITUTE FOR MEDICAL RESEARCH AND PUBLIC …, published 2024).

Molecular target: SARS-COV-2 spike protein, ancestral Hu-1, on retroviral pseudotyped virus (SARS-COV-2, UniProt P0DTC2 14-1273)
Experiment: cell-based or functional assay

B1: CB6-dIgA2 (dimeric chimeric IgA2 of monoclonal antibody CB6 with J chain) (antibody)
heavy: ASEVQLVESGGGLVQPGGSLRLSCAASGFTVSSNYMSWVRQAPGKGLEWVSVIYSGGSTFYADSVKGRFTISRDNSMNTLFLQMNSLRAEDTAVYYCARVLPMYGDYLDYWGQGTLVTVSSASTKGPSVFPLAPSSKSTSGASPTSPKVFPLSLDSTPQDGNVVVACLVQGFFPQEPLSVTWSESGQNVTARNFPPSQDASGDLYTTSSQLTLPATQCPDGKSVTCHVKHYTNPSQDVTVPCPVPPPPPCCHPRLSLHRPALEDLLLGSEANLTCTLTGLRDASGATFTWTPSSGKSAVQGPPERDLCGCYSVSSVLPGCAQPWNHGETFTCTAAHPELKTPLTANITKSGNTFRPEVHLLPPPSEELALNELVTLTCLARGFSPKDVLVRWLQGSQELPREKYLTWASRQEPSQGTTTFAVTSILRVAAEDWKKGDTFSCMVGHEALPLAFTQKTIDRLAGKPTHVNVSVVMAEVDGTCY
light: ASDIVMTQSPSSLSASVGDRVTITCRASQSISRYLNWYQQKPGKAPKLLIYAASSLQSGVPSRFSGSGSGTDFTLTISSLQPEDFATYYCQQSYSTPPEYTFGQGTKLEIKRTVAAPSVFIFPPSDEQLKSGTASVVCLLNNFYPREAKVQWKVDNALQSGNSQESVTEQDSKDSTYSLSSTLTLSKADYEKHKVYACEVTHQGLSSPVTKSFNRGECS
J chain: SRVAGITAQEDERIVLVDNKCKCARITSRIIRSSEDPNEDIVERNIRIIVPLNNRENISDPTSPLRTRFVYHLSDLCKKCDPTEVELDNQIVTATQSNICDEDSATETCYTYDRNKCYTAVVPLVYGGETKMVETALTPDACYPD
IC50 of pseudotyped virus entry, fold against the IgG version: 2.5 fold
